Here are results for four molecules from US20250144229A1, “CONJUGATE OF ANTIBODY-ERIBULIN OR DERIVATIVE THEREOF, INTERMEDIATE THEREOF, PREPARATION METHOD THEREFOR, PHARMACEUTICAL COMPOSITION THEREOF AND USE THEREOF” (MEDLINK THERAPEUTICS (SUZHOU) CO., LTD., priority 2022, published 2025).

For one series, the system named is SW480. Kind of series: Inhibitory activity of ADC on cell viability in vitro (CCK8), SW480. The class given is cell-based. The following applies: Homo sapiens, SW480, 168 h, 7 days incubation. The method, then: (§1) HT29, NCI-H358 (HT29 and NCI-H358 are B7H3 positive tumor cells), SW480, A375, A549, and Calu-3 (Calu-3 is B7H3 negative tumor cells) tumor cells were digested by trypsin using conventional methods. Cells in the tube were collected and counted, then resuspended in the corresponding assay medium (containing 2% FBS), and added to a 96-well plate at 2000 to 5000 cells/well. 100 μL of ADC diluted in 2% FBS medium was added to the 96-well plate, with 3-fold serial dilution at an initial concentration of 150 µg/mL (12 concentration gradients). The plate was incubated at 37° C. under 5% CO2 for 7 days. 20 μL of CCK8 reagent was then added to each well, and the reaction was carried out for 2 to 6 hours. The plate was read on a microplate reader (detection wavelength: 450 nm). The test results are shown in Table 3-1, Table 3-2, and FIGS. 7A to 7E.

The subject of another series is A375. Nature of the series: Inhibitory activity of ADC on cell viability in vitro (CCK8), A375. The class given is cell-based. The following applies: Homo sapiens, A-375, 168 h, 7 days incubation. As to the method:
as §1

The test system of the next series is A549. Nature of the series: Inhibitory activity of ADC on cell viability in vitro (CCK8), A549. Particulars: Homo sapiens, A549, 168 h, 7 days incubation. The class given is cell-based. As to the method:
as §1

Another series relates to HT29. Nature of the series: Inhibitory activity of ADC on cell viability in vitro (CCK8), HT29. The class given is cell-based. The following applies: Homo sapiens, HT-29, 168 h, 7 days incubation, B7H3 positive tumor cells. The method, then: as §1
Series [1] deals with T1, human B7H3-4IgG-His protein (Homo sapiens, UniProt Q5ZPR3).
T1 construct: amino acids at positions 27 to 461 (Uniport protein No. Q5ZPR3-1) of human 4Ig B7H3; 6xHis (C); made in house; host or cells: HEK293F (transient, PTT5 vector)
T1 sequence (Q5ZPR3 27-461): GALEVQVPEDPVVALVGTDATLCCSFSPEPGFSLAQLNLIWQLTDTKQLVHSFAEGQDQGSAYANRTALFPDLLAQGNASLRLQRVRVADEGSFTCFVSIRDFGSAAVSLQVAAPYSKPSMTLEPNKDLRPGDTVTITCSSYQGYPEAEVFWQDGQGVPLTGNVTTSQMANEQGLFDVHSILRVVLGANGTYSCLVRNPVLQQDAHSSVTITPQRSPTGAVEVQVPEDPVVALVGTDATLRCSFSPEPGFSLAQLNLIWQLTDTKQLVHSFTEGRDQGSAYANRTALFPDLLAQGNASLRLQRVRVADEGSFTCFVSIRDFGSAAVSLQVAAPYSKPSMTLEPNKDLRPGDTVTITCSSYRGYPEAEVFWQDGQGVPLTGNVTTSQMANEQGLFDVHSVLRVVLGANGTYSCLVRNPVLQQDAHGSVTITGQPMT
Kind of series: ELISA protein affinity assay of anti-B7H3 antibody, human protein. The class given is binding. Particulars: coated protein. As to the method: The plate was washed five times with PBST. […] The absorbance was measured at 450 nm.
For orientation: In an ELISA, binding on a coated surface is turned into a signal by an enzyme label.

In a further series the test system is MCF-7 tumor cells. Nature of the series: Cell affinity assay of anti-B7H3 antibody by FACS, MCF-7. The class given is binding. Particulars: flow cytometry. As to the method: (§2) B7H3 protein is highly expressed in a variety of solid tumor cells. The affinity of B7H3 full human antibody to tumor cells was tested by FACS. Specific experimental procedures: MCF-7 breast cancer cells, A549 human non-small cell lung cancer cells, and PC3 human prostate cancer cells grown to logarithmic phase were digested by trypsin, and resuspended to 5*10^5 cells/mL in PBS buffer containing 2% BSA. 100 μL of cell suspension was added to a 96-well plate. […] 100 μL of antibody suspension was then added into the 96-well plate and mixed homogeneously. The plate was incubated at 4° C. for 1 hour, washed twice with pre-cooled PBS at 300 μL/well each time, and centrifuged at 500 g for 5 minutes. 1:50 fluorescent secondary antibody APC anti-human IgG or PE anti-human IgG (purchased from Biolegend) was added at 100 μL/well and mixed homogeneously. The plate was incubated at 4° C. for 0.5 hours, washed twice with pre-cooled PBS at 300 μL/well each time, centrifuged at 500 g for 5 minutes, and resuspended in 500 μL of PBS. The average fluorescence signal value was measured by Beckman flow cytometer. The EC50 value was calculated from the average fluorescence signal value.
In general terms: A flow cytometer gives signals particle by particle.

A further series has as its system A549 tumor cells. Nature of the series: Cell affinity assay of anti-B7H3 antibody by FACS, A549. The class given is binding, human. The following applies: flow cytometry; middle B7H3-expressing cells. As to the method: as §2
Another series concerns PC-3 tumor cells. Kind of series: Cell affinity assay of anti-B7H3 antibody by FACS, PC-3. The class given is binding, human. Particulars: flow cytometry. As to the method:
as §2

The conditions of series [2]: cited from earlier work.
In series [3] the target is B7H3 protein on human tumor cells (MCF-7, A549, PC-3, HT29) (human) (UniProt Q5ZPR3). Nature of the series: flow cytometry on A549 tumor cells.
Sequence of B7H3 protein on human tumor cells (MCF-7, A549, PC-3, HT29) (human) (Q5ZPR3 29-534): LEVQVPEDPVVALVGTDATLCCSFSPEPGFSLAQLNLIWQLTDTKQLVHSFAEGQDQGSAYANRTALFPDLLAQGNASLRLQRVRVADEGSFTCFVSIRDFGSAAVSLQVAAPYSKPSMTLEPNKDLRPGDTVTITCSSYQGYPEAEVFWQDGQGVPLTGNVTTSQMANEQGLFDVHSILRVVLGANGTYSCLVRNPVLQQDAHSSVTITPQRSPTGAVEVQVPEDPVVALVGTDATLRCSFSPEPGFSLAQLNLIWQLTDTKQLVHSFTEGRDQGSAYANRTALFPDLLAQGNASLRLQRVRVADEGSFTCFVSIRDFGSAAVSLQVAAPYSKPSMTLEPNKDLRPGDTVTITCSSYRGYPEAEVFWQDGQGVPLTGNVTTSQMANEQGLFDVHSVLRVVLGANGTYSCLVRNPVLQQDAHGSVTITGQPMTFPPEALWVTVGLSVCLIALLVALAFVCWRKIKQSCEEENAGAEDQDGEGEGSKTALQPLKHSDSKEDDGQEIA
Series [4] shares this target. Nature of the series: flow cytometry on A549 tumor cells. The source holds these as a separate data set.
Series [5] shares this target. Kind of series: flow cytometry on PC-3 tumor cells.
Series [6] shares this target. Nature of the series: flow cytometry on MCF-7 tumor cells.
The target is the same in series [7]. Kind of series: flow cytometry on MCF-7 tumor cells. This is another data set of the same source.
The target of series [8] is T2, human B7H3-4IgG-His (human) (UniProt Q5ZPR3).
T2 sequence: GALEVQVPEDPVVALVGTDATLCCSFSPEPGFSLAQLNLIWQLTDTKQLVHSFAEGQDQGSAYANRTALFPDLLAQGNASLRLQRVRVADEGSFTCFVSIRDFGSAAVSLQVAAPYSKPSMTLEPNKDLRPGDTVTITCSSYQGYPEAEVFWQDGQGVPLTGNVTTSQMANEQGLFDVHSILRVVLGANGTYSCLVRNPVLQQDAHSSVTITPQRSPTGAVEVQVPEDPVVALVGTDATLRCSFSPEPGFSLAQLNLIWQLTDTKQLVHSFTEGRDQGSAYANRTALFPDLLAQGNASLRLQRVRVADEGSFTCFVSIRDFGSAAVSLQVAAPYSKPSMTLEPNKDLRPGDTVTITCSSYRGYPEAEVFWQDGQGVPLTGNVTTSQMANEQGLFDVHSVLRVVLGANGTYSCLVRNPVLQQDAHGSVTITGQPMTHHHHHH
Nature of the series: ELISA, antigen coated on the plate, anti-human Fc-HRP detection.

The target of series [9] is monkey B7H3-4IgG-His (monkey). The description is as above.
The target in series [10] is T2, human B7H3-4IgG-His (human). The series is described as above. This is another data set of the same source.
The target in series [11] is monkey B7H3-4IgG-His (monkey). Described as above. This is another data set of the same source.

“And” between values parts separate entries of the source, which are not always exact repeats. Equal values may be shown once. Where a name gives a salt, the structure may show the parent alone. Read-outs that look alike come from different tables or passages of the source.

Usually IC50 stands for the concentration at which inhibition is half-maximal. Consider `C=C1C[C@@H]2CC[C@@]34C[C@H]5O[C@H]6[C@@H](O3)[C@H]3O[C@H](CC[C@@H]3O[C@H]6[C@H]5O4)CC(=O)C[C@@H]3[C@@H](OC)[C@@H](C[C@H](O)CN)O[C@H]3C[C@H]3O[C@@H](CC[C@@H]1O2)C[C@@H](C)C3=C` [Eribulin, eribulin], for which the IC50 with SW480 is 1.38 nM; with A375, 1.14 nM; in the series with A549 it was 0.31 nM; in the series on HT29, 0.2 nM.
Usually EC50 stands for the concentration needed to bring the measured effect to its halfway point. Take “B7H3-C1: anti-B7H3 antibody numbered M30-H1-L4 in CN103687945B”: the EC50 in series [1] was 0.048 nM; with MCF-7 tumor cells (high B7H3-expressing cells) it was 1.71 nM and 1.36 nM; with A549 tumor cells, 1.86 nM and 1.05 nM; in the series on PC-3 tumor cells (low B7H3-expressing cells), 0.618 nM. Further, the “MCF-7 tumor cells Maximum MFI” value with MCF-7 tumor cells was 83992 and 63194. Besides, the “PC-3 tumor cells Maximum MFI” value in the series with PC-3 tumor cells is 6436.
On to `C=C1C[C@@H]2CC[C@@]34C[C@H]5O[C@H]6[C@@H](O3)[C@H]3O[C@H](CC[C@@H]3O[C@H]6[C@H]5O4)CC(=O)C[C@@H]3[C@@H](OC)[C@@H](C[C@H](O)CN)O[C@H]3C[C@H]3O[C@@H](CC[C@@H]1O2)C[C@@H](C)C3=C` [Eribulin mesylate], for which the “maximum tolerated dose (MTD)” value in series [2] (intravenous infusion on day 1, 8 and 15 of a 28-day cycle, patients) was 1.4 mg/m^2. Also, the “grade 3-4 adverse events: neutropenia” value in [2] (patients treated with eribulin mesylate) was 64%.

B1: antibody B7H3-C1 (antibody, INN chains, looked up, V domains shown)
VH: QVQLVQSGAEVKKPGSSVKVSCKASGYTFTNYVMHWVRQAPGQGLEWMGYINPYNDDVKYNEKFKGRVTITADESTSTAYMELSSLRSEDTAVYYCARWGYYGSPLYYFDYWGQGTLVTVSS
VL: EIVLTQSPATLSLSPGERATLSCRASSRLIYMHWYQQKPGQAPRPLIYATSNLASGIPARFSGSGSGTDFTLTISSLEPEDFAVYYCQQWNSNPPTFGQGTKVEIK
Take B1: the EC50 in series [3] worked out at 1.86 nM; in series [4], 1.05 nM; in series [5], 0.618 nM; in series [6], 1.71 nM; in series [7] it was 1.36 nM; in [8], 0.048 nM. Besides, the EC50 in series [9] came to 0.167 nM; in series [10], 0.0519 nM; in series [11], 3.92 nM. Also, the Maximum MFI was determined as 8270 in series [3]; 48000 in series [4]; 6440 in series [5]; 84000 in series [6]; 63200 in [7].
